According to publication PMC4160023 (Nature, 2013):

Biological target: the molecule itself
Assay: negative-stain electron microscopy

B1: hRegIIIα E114Q mutant (natural protein, human, UniProt Q06141 38-175, looked up)
chain: IRCPKGSKAYGSHCYALFLSPKSWTDADLACQKRPSGNLVSVLSGAEGSFVSSLVKSIGNSYSYVWIGLHDPTQGTQPNGEGWEWSSSDVMNYFAWERNPSTISSPGHCASLSRSTAFLRWKDYNCNVRLPYVCKFTD
B1: binds.
